In the experiment the target is human TrkA on TF-1 cells (human), P04629. The experiment can be described thus: cell-based or functional assay.
Chain of human TrkA on TF-1 cells (human), P04629 (P04629 33-796): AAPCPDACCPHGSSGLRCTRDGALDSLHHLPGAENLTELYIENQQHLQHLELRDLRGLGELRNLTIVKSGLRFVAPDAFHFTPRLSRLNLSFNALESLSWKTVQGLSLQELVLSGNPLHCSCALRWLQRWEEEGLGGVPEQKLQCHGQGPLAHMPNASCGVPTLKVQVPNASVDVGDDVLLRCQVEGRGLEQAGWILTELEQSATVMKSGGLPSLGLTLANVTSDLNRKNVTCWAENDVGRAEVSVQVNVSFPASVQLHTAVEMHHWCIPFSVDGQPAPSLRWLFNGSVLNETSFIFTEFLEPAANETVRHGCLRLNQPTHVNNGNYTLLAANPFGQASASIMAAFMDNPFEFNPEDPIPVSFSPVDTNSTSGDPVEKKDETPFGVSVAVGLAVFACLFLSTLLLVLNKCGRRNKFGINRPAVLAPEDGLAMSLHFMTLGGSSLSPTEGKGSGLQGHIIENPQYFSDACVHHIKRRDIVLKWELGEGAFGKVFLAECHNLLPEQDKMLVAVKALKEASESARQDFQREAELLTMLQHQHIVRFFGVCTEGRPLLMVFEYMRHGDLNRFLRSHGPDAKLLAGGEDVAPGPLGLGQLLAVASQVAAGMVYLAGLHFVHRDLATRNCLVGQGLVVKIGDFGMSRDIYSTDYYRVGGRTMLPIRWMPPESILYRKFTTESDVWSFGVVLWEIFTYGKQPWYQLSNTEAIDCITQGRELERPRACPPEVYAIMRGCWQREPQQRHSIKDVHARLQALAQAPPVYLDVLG

B1: MNAC13 mouse antibody (antibody, mouse IgG1, kappa)
heavy: EVKLVESGGGLVQPGGSLKLSCAASGFTFSTYTMSWARQTPEKRLEWVAYISKGGGSTYYPDTVKGRFTISRDNAKNTLYLQMSSLKSEDTALYYCARGAMYGNDFFYPMDYWGQGTSVTVSSKTTPPSVYPLAPGSAAQTNSMVTLGCLVKGYFPEPVTVTWNSGSLSSGVHTFPAVLESDLYTLSSSVTVPSSPRPSETVTCNVAHPASSTKVDKKIVPRDCGCKPCICTVPEVSSVFIFPPKPKDVLTITLTPKVTCVVVDISKDDPEVQFSWFVDDVEVHTAQTQPREEQFNSTFRSVSELPIMHQDWLNGKEFKCRVNSAAFPAPIEKTISKTKGRPKAPQVYTIPPPKEQMAKDKVSLTCMITDFFPEDITVEWQWNGQPAENYKNTQPIMNTNGSYFVYSKLNVQKSNWEAGNTFTCSVLHEGLHNHHTEKSLSHSPGK
light: QIVLTQSPAIMSASLGEEITLTCSASSSVSYMHWYQQKSGTSPKLLIYTTSNLASGVPSRFSGSGSGTFYSLTISSVEAEDAADYYCHQWSSYPWTFGGGTKLEIKADAAPTVSIFPPSSEQLTSGGASVVCFLNNFYPKDINVKWKIDGSERQNGVLNSWTDQDSKDSTYSMSSTLTLTKDEYERHNSYTCEATHKTSTSPIVKSFNRNEC
B1: the TF-1 cell proliferation assay IC50 (5 ng/ml human beta-NGF) was 0.23 µg/mL.

For the origin of these results see patent publication US20160319027A1.
